Laboratory results published in patent US20210324360.

Target: SUMO-modified granzyme B
Sequence (chain, as listed by the source): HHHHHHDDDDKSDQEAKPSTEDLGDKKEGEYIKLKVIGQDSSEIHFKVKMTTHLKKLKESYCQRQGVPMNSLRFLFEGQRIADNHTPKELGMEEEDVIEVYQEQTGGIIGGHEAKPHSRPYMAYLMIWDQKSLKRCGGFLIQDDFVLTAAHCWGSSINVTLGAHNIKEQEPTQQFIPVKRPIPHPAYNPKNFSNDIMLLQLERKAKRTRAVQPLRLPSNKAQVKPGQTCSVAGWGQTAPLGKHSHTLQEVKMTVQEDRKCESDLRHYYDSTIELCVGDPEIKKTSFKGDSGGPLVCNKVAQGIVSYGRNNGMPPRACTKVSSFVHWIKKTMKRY

B1: Sentrin-specific protease 1 (SENP1) (protein)
chain: MDDIADRMRMDAGEVTLVNHNSVFKTHLLPQTGFPEDQLSLSDQQILSSRQGHLDRSFTCSTRSAAYNPSYYSDNPSSDSFLGSGDLRTFGQSANGQWRNSTPSSSSSLQKSRNSRSLYLETRKTSSGLSNSFAGKSNHHCHVSAYEKSFPIKPVPSPSWSGSCRRSLLSPKKTQRRHVSTAEETVQEEEREIYRQLLQMVTGKQFTIAKPTTHFPLHLSRCLSSSKNTLKDSLFKNGNSCASQIIGSDTSSSGSASILTNQEQLSHSVYSLSSYTPDVAFGSKDSGTLHHPHHHHSVPHQPDNLAASNTQSEGSDSVILLKVKDSQTPTPSSTFFQAELWIKELTSVYDSRARERLRQIEEQKALALQLQNQRLQEREHSVHDSVELHLRVPLEKEIPVTVVQETQKKGHKLTDSEDEFPEITEEMEKEIKNVFRNGNQDEVLSEAFRLTITRKDIQTLNHLNWLNDEIINFYMNMLMERSKEKGLPSVHAFNTFFFTKLKTAGYQAVKRWTKKVDVFSVDILLVPIHLGVHWCLAVVDFRKKNITYYDSMGGINNEACRILLQYLKQESIDKKRKEFDTNGWQLFSKKSQEIPQQMNGSDCGMFACKYADCITKDRPINFTQQHMPYFRKRMVWEILHRKLL
- GrB activity (cleavage of Ac-IEPD-pNA, absorbance at 405 nm) and western blot after co-incubation with Mock-transfected or SENP1-overexpressing HEK lysate: SENP1 activates SUMO-GrB
